Data: the supplement of paper PMC5998384

Assays:
[1] = test system: HeLa Kyoto; test: solubility in G1/S (NP-40 vs SDS abundance) (log2 ratio); higher = more soluble; conditions: cell cycle stage: G1/S
[2] = test system: HeLa Kyoto; test: thermal stability score vs G1/S (z-score of summed log2 fold changes over temperatures); higher = more thermally stable than in G1/S
[3] = test system: HeLa Kyoto; test: solubility change mitosis vs G1/S (difference of NP-40 vs SDS log2 ratios) (log2 ratio difference); higher = more soluble in mitosis
[4] = test system: HeLa Kyoto; test: melting temperature (median over replicates), in situ; higher = more thermally stable
[5] = cell cycle stage: early G1 (4.5 h after nocodazole release)
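Throughout, for melting temperature (median over replicates), in situ: HeLa Kyoto cells synchronized by double thymidine or nocodazole block, proteins quantified by TMT10plex mass spectrometry, three independent biological replicates.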
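Throughout, for solubility change mitosis vs G1/S (difference of NP-40 vs SDS log2 ratios): synchronized HeLa Kyoto cells (double thymidine block for G1/S, nocodazole release for mitosis), protein amounts in NP-40 versus SDS lysates quantified by mass spectrometry, three biological replicates.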
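Throughout, for solubility in G1/S (NP-40 vs SDS abundance): HeLa Kyoto cells arrested at G1/S by double thymidine block, proteins quantified by TMT10plex mass spectrometry in mild NP-40 versus SDS extracts, three biological replicates.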
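Throughout, for thermal stability score vs G1/S (z-score of summed log2 fold changes over temperatures): synchronized HeLa Kyoto cells, proteins quantified by TMT10plex mass spectrometry, three biological replicates, mitosis taken 0.5 h after nocodazole release, G1/S directly after double thymidine block.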

Question: For “MQGSSLWLSLTFRSARVLSRARFFEWQSPGLPNTAAMENGTGPYGEERPREVQETTVTEGAAKIAFPSANEVFYNPVQEFNRDLTCAVITEFARIQLGAKGIQIKVPGEKDTQKVVVDLSEQEEEKVELKESENLASGDQPRTAAVGEICEEGLHVLEGLAASGLRSIRFALEVPGLRSVVANDASTRAVDLIRRNVQLNDVAHLVQPSQADARMLMYQHQRVSERFDVIDLDPYGSPATFLDAAVQAVSEGGLLCVTCTDMAVLAGNSGETCYSKYGAMALKSRACHEMALRIVLHSLDLRANCYQRFVVPLLSISADFYVRVFVRVFTGQAKVKASASKQALVFQCVGCGAFHLQRLGKASGVPSGRAKFSAACGPPVTPECEHCGQRHQLGGPMWAEPIHDLDFVGRVLEAVSANPGRFHTSERIRGVLSVITEELPDVPLYYTLDQLSSTIHCNTPSLLQLRSALLHADFRVSLSHACKNAVKTDAPASALWDIMRCWEKECPVKRERLSETSPAFRILSVEPRLQANFTIREDANPSSRQRGLKRFQANPEANWGPRPRARPGGKAADEAMEERRRLLQNKRKEPPEDVAQRAARLKTFPCKRFKEGTCQRGDQCCYSHSPPTPRVSADAAPDCPETSNQTPPGPGAAAGPGID [TRMT1]”, which “solubility in G1/S (log2)” value [1] is on record?
Answer: Its value is -0.0405.

Question: And the thermal stability score [2, 5]?
Answer: Its thermal stability score is -0.711.

Question: And the thermal stability score ([2]; cell cycle stage: mitosis)?
Answer: The thermal stability score was -1.01.

Question: What about the “solubility change mitosis (log2)” value [3] of the same sequence?
Answer: The value was -0.0538.

Question: What about the melting temperature ([4]; cell cycle stage: G1/S) of the same sequence?
Answer: Its melting temperature is 56.3 °C.

Question: And the melting temperature ([4]; cell cycle stage: mitosis)?
Answer: Its melting temperature is 56.7 °C.

Question: Which results are given for “MQLRNPELHLGCALALRFLALVSWDIPGARALDNGLARTPTMGWLHWERFMCNLDCQEEPDSCISEKLFMEMAELMVSEGWKDAGYEYLCIDDCWMAPQRDSEGRLQADPQRFPHGIRQLANYVHSKGLKLGIYADVGNKTCAGFPGSFGYYDIDAQTFADWGVDLLKFDGCYCDSLENLADGYKHMSLALNRTGRSIVYSCEWPLYMWPFQKPNYTEIRQYCNHWRNFADIDDSWKSIKSILDWTSFNQERIVDVAGPGGWNDPDMLVIGNFGLSWNQQVTQMALWAIMAAPLFMSNDLRHISPQAKALLQDKDVIAINQDPLGKQGYQLRQGDNFEVWERPLSGLAWAVAMINRQEIGGPRSYTIAVASLGKGVACNPACFITQLLPVKRKLGFYEWTSRLRSHINPTGTVLLQLENTMQMSLKDLL”?
Answer: solubility in G1/S (log2) [1]: 0.24; thermal stability score [2, 5]: -3.45; thermal stability score ([2]; cell cycle stage: mitosis): -2.97; solubility change mitosis (log2) [3]: -0.105; melting temperature ([4]; cell cycle stage: G1/S): 55.1 °C; melting temperature ([4]; cell cycle stage: mitosis): 56.7 °C

Question: What does the source list for “MQLTVKALQGRECSLQVPEDELVSTLKQLVSEKLNVPVRQQRLLFKGKALADGKRLSDYSIGPNSKLNLVVKPLEKVLLEEGEAQRLADSPPPQVWQLISKVLARHFSAADASRVLEQLQRDYERSLSRLTLDDIERLASRFLHPEVTETMEKGFSK [UBL4A]”?
Answer: solubility in G1/S (log2) [1]: 0.557; thermal stability score [2, 5]: 0.0718; thermal stability score ([2]; cell cycle stage: mitosis): 0.136; solubility change mitosis (log2) [3]: 0.277; melting temperature ([4]; cell cycle stage: G1/S): 51.4 °C; melting temperature ([4]; cell cycle stage: mitosis): 51.7 °C

Question: Which “solubility in G1/S (log2)” value [1] does the source give for “MQMSYAIRCAFYQLLLAALMLVAMLQLLYLSLLSGLHGQEEQDQYFEFFPPSPRSVDQVKAQLRTALASGGVLDASGDYRVYRGLLKTTMDPNDVILATHASVDNLLHLSGLLERWEGPLSVSVFAATKEEAQLATVLAYALSSHCPDMRARVAMHLVCPSRYEAAVPDPREPGEFALLRSCQEVFDKLARVAQPGINYALGTNVSYPNNLLRNLAREGANYALVIDVDMVPSEGLWRGLREMLDQSNQWGGTALVVPAFEIRRARRMPMNKNELVQLYQVGEVRPFYYGLCTPCQAPTNYSRWVNLPEESLLRPAYVVPWQDPWEPFYVAGGKVPTFDERFRQYGFNRISQACELHVAGFDFEVLNEGFLVHKGFKEALKFHPQKEAENQHNKILYRQFKQELKAKYPNSPRRC [B4GAT1]” here?
Answer: Its value is 0.284.

Question: What about the thermal stability score [2, 5] of the same sequence?
Answer: Its thermal stability score is 0.621.

Question: What about the thermal stability score ([2]; cell cycle stage: mitosis) of the same sequence?
Answer: The thermal stability score was 0.329.

Question: What about the “solubility change mitosis (log2)” value [3] of the same sequence?
Answer: The value was 0.00523.

Question: And the melting temperature ([4]; cell cycle stage: G1/S)?
Answer: The melting temperature was 53.7 °C.

Question: And the melting temperature ([4]; cell cycle stage: mitosis)?
Answer: Its melting temperature is 54.1 °C.

Question: For “MQMVPSLPPASECAGEEKRVGTRTVFVGNHPVSETEAYIAQRFCDNRIVSSKYTLWNFLPKNLFEQFRRIANFYFLIIFLVQVTVDTPTSPVTSGLPLFFVITVTAIKQGYEDCLRHRADNEVNKSTVYIIENAKRVRKESEKIKVGDVVEVQADETFPCDLILLSSCTTDGTCYVTTASLDGESNCKTHYAVRDTIALCTAESIDTLRAAIECEQPQPDLYKFVGRINIYSNSLEAVARSLGPENLLLKGATLKNTEKIYGVAVYTGMETKMALNYQGKSQKRSAVEKSINAFLIVYLFILLTKAAVCTTLKYVWQSTPYNDEPWYNQKTQKERETLKVLKMFTDFLSFMVLFNFIIPVSMYVTVEMQKFLGSFFISWDKDFYDEEINEGALVNTSDLNEELGQVDYVFTDKTGTLTENSMEFIECCIDGHKYKGVTQEVDGLSQTDGTLTYFDKVDKNREELFLRALCLCHTVEIKTNDAVDGATESAELTYISSSPDEIALVKGAKRYGFTFLGNRNGYMRVENQRKEIEEYELLHTLNFDAVRRRMSVIVKTQEGDILLFCKGADSAVFPRVQNHEIELTKVHVERNAMDGYRTLCVAFKEIAPDDYERINRQLIEAKMALQDREEKMEKVFDDIETNMNLIGATAVEDKLQDQAAETIEALHAAGLKVWVLTGDKMETAKSTCYACRLFQTNTELLELTTKTIEESERKEDRLHELLIEYRKKLLHEFPKSTRSFKKAWTEHQEYGLIIDGSTLSLILNSSQDSSSNNYKSIFLQICMKCTAVLCCRMAPLQKAQIVRMVKNLKGSPITLSIGDGANDVSMILESHVGIGIKGKEGRQAARNSDYSVPKFKHLKKLLLAHGHLYYVRIAHLVQYFFYKNLCFILPQFLYQFFCGFSQQPLYDAAYLTMYNICFTSLPILAYSLLEQHINIDTLTSDPRLYMKISGNAMLQLGPFLYWTFLAAFEGTVFFFGTYFLFQTASLEENGKVYGNWTFGTIVFTVLVFTVTLKLALDTRFWTWINHFVIWGSLAFYVFFSFFWGGIIWPFLKQQRMYFVFAQMLSSVSTWLAIILLIFISLFPEILLIVLKNVRRRSARRNLSCRRASDSLSARPSVRPLLLRTFSDESNVL [ATP11C]”, which “solubility in G1/S (log2)” value [1] is on record?
Answer: The value was -0.156.

Question: And the thermal stability score [2, 5]?
Answer: Its thermal stability score is -0.694.

Question: What about the thermal stability score ([2]; cell cycle stage: mitosis) of the same sequence?
Answer: Its thermal stability score is -1.66.

Question: And the “solubility change mitosis (log2)” value [3]?
Answer: Its value is -0.202.

Question: What about the melting temperature ([4]; cell cycle stage: G1/S) of the same sequence?
Answer: The melting temperature was 55.2 °C.

Question: And the melting temperature ([4]; cell cycle stage: mitosis)?
Answer: Its melting temperature is 55 °C.
